Test results published in the supplement of paper PMC9112550, “Optimization of the antimicrobial peptide Bac7 by deep mutational scanning” (BMC Biology, 2022).

What follows are sequences tested on Escherichia coli TOP10 (assay: shrunken log2 fold change of peptide-encoding DNA abundance (4.5 h post-induction vs induction); higher = less antimicrobial activity (less host growth inhibition)). Conditions: time post-induction: 4.5 h; library: site-saturation at positions 5, 18, 19, 20.
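Also: peptides expressed intracellularly from a pBAD plasmid library in pooled LB shake-flask culture, induced with 0.3% L-arabinose, DNA abundance read by NGS, three biological replicates, DESeq2 with apeglm shrinkage.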

| Sequence | shrunken log2 fold change |
| --- | --- |
| RRIRPRPPRLPRPRPRPACLPRP | 0.0505 |
| RRIRPRPPRLPRPRPRPADLPRP | 0.0166 |
| RRIRPRPPRLPRPRPRPAEDPRP | -0.114 |
| RRIRPRPPRLPRPRPRPAEEPRP | 0.2 |
| RRIRPRPPRLPRPRPRPAGNPRP | 0.194 |
| RRIRPRPPRLPRPRPRPAIWPRP | 0.405 |
| RRIRPRPPRLPRPRPRPAIYPRP | -0.017 |
| RRIRPRPPRLPRPRPRPAKGPRP | 0.403 |
| RRIRPRPPRLPRPRPRPALTPRP | 0.241 |
| RRIRPRPPRLPRPRPRPANCPRP | 0.0263 |
| RRIRPRPPRLPRPRPRPANNPRP | -0.353 |
| RRIRPRPPRLPRPRPRPAPMPRP | 0.284 |
| RRIRPRPPRLPRPRPRPAPQPRP | 0.461 |
| RRIRPRPPRLPRPRPRPAQNPRP | -0.105 |
| RRIRPRPPRLPRPRPRPAQYPRP | 0.0469 |
| RRIRPRPPRLPRPRPRPARGPRP | 0.606 |
| RRIRPRPPRLPRPRPRPARTPRP | 0.396 |
| RRIRPRPPRLPRPRPRPASRPRP | 0.0846 |
| RRIRPRPPRLPRPRPRPASSPRP | 0.0138 |
| RRIRPRPPRLPRPRPRPASVPRP | 0.185 |
| RRIRPRPPRLPRPRPRPATLPRP | 0.223 |
| RRIRPRPPRLPRPRPRPAVDPRP | 0.249 |

| Sequence | shrunken log2 fold change |
| --- | --- |
| RRIRPRPPRLPRPRPRPCCNPRP | -0.301 |
| RRIRPRPPRLPRPRPRPCCQPRP | -0.516 |
| RRIRPRPPRLPRPRPRPCCWPRP | 0.81 |
| RRIRPRPPRLPRPRPRPCDYPRP | 0.218 |
| RRIRPRPPRLPRPRPRPCEEPRP | 0.205 |
| RRIRPRPPRLPRPRPRPCEIPRP | 0.0471 |
| RRIRPRPPRLPRPRPRPCGCPRP | 0.098 |
| RRIRPRPPRLPRPRPRPCGDPRP | 0.078 |
| RRIRPRPPRLPRPRPRPCHDPRP | -0.097 |
| RRIRPRPPRLPRPRPRPCHTPRP | -0.498 |
| RRIRPRPPRLPRPRPRPCINPRP | -0.726 |
| RRIRPRPPRLPRPRPRPCITPRP | -0.373 |
| RRIRPRPPRLPRPRPRPCKAPRP | -0.00218 |
| RRIRPRPPRLPRPRPRPCKYPRP | -0.499 |
| RRIRPRPPRLPRPRPRPCLIPRP | -0.129 |
| RRIRPRPPRLPRPRPRPCLSPRP | -0.143 |
| RRIRPRPPRLPRPRPRPCMDPRP | -0.561 |
| RRIRPRPPRLPRPRPRPCMLPRP | -0.663 |
| RRIRPRPPRLPRPRPRPCNGPRP | -0.202 |
| RRIRPRPPRLPRPRPRPCPAPRP | -0.0349 |
| RRIRPRPPRLPRPRPRPCQCPRP | -0.0627 |
| RRIRPRPPRLPRPRPRPCRAPRP | 0.0858 |

| Sequence | shrunken log2 fold change |
| --- | --- |
| RRIRPRPPRLPRPRPRPCRMPRP | -0.0012 |
| RRIRPRPPRLPRPRPRPCSYPRP | -0.858 |
| RRIRPRPPRLPRPRPRPCTCPRP | -0.049 |
| RRIRPRPPRLPRPRPRPCTHPRP | -0.0646 |
| RRIRPRPPRLPRPRPRPCTNPRP | -0.0219 |
| RRIRPRPPRLPRPRPRPCTVPRP | 0.0392 |
| RRIRPRPPRLPRPRPRPCWWPRP | 0.742 |
| RRIRPRPPRLPRPRPRPCYMPRP | -1.12 |
| RRIRPRPPRLPRPRPRPDCIPRP | -0.391 |
| RRIRPRPPRLPRPRPRPDCSPRP | 0.152 |
| RRIRPRPPRLPRPRPRPDENPRP | -0.0444 |
| RRIRPRPPRLPRPRPRPDERPRP | -0.0865 |
| RRIRPRPPRLPRPRPRPDGQPRP | 0.204 |
| RRIRPRPPRLPRPRPRPDGTPRP | -0.122 |
| RRIRPRPPRLPRPRPRPDGVPRP | 0.14 |
| RRIRPRPPRLPRPRPRPDIPPRP | -0.219 |
| RRIRPRPPRLPRPRPRPDIQPRP | -0.222 |
| RRIRPRPPRLPRPRPRPDKVPRP | -0.249 |
| RRIRPRPPRLPRPRPRPDKWPRP | -0.0254 |
| RRIRPRPPRLPRPRPRPDKYPRP | -0.743 |
| RRIRPRPPRLPRPRPRPDMDPRP | -0.21 |
| RRIRPRPPRLPRPRPRPDNDPRP | 0.0931 |

| Sequence | shrunken log2 fold change |
| --- | --- |
| RRIRPRPPRLPRPRPRPDRWPRP | 0.219 |
| RRIRPRPPRLPRPRPRPDWLPRP | 0.288 |
| RRIRPRPPRLPRPRPRPDYPPRP | -0.0173 |
| RRIRPRPPRLPRPRPRPDYYPRP | -0.346 |
| RRIRPRPPRLPRPRPRPEACPRP | 0.321 |
| RRIRPRPPRLPRPRPRPEASPRP | 0.0221 |
| RRIRPRPPRLPRPRPRPECAPRP | 0.698 |
| RRIRPRPPRLPRPRPRPEDSPRP | 0.159 |
| RRIRPRPPRLPRPRPRPEDWPRP | 0.391 |
| RRIRPRPPRLPRPRPRPEEAPRP | 0.0763 |
| RRIRPRPPRLPRPRPRPEEYPRP | 0.00398 |
| RRIRPRPPRLPRPRPRPEFIPRP | -0.117 |
| RRIRPRPPRLPRPRPRPEGWPRP | 1.82 |
| RRIRPRPPRLPRPRPRPEHAPRP | 0.197 |
| RRIRPRPPRLPRPRPRPEKAPRP | 0.385 |
| RRIRPRPPRLPRPRPRPEKFPRP | -0.181 |
| RRIRPRPPRLPRPRPRPEKMPRP | 0.742 |
| RRIRPRPPRLPRPRPRPELEPRP | 0.219 |
| RRIRPRPPRLPRPRPRPEMSPRP | 0.147 |
| RRIRPRPPRLPRPRPRPENCPRP | 0.151 |
| RRIRPRPPRLPRPRPRPENLPRP | -0.278 |
| RRIRPRPPRLPRPRPRPENNPRP | -0.119 |

| Sequence | shrunken log2 fold change |
| --- | --- |
| RRIRPRPPRLPRPRPRPEPIPRP | 0.26 |
| RRIRPRPPRLPRPRPRPEPQPRP | 0.268 |
| RRIRPRPPRLPRPRPRPEQFPRP | -0.0226 |
| RRIRPRPPRLPRPRPRPERMPRP | 0.122 |
| RRIRPRPPRLPRPRPRPESAPRP | 0.396 |
| RRIRPRPPRLPRPRPRPESIPRP | -0.0804 |
| RRIRPRPPRLPRPRPRPETNPRP | 0.192 |
| RRIRPRPPRLPRPRPRPEVIPRP | 0.0141 |
| RRIRPRPPRLPRPRPRPEWDPRP | 0.269 |
| RRIRPRPPRLPRPRPRPEYGPRP | -0.167 |
| RRIRPRPPRLPRPRPRPEYLPRP | 0.0461 |
| RRIRPRPPRLPRPRPRPFAIPRP | -0.232 |
| RRIRPRPPRLPRPRPRPFAYPRP | -0.135 |
| RRIRPRPPRLPRPRPRPFCFPRP | 0.337 |
| RRIRPRPPRLPRPRPRPFDRPRP | 0.0133 |
| RRIRPRPPRLPRPRPRPFDVPRP | 0.0778 |
| RRIRPRPPRLPRPRPRPFEEPRP | -0.00852 |
| RRIRPRPPRLPRPRPRPFEPPRP | 0.232 |
| RRIRPRPPRLPRPRPRPFETPRP | -0.117 |
| RRIRPRPPRLPRPRPRPFGPPRP | -0.083 |
| RRIRPRPPRLPRPRPRPFIKPRP | -0.926 |
